Assay results published in patent publication US20220118103A1, “METHOD FOR DECREASING IMMUNOGENICITY OF PROTEIN AND PEPTIDE” (HANMI PHARM. CO., LTD., priority 2014, published 2022).
“Also recorded” adds a separate entry of the source. Read-outs that look alike come from different tables or passages of the source.

What was measured:
[1] = test system: peripheral blood mononuclear cells (PBMC) of the donor, CD8+ T cells removed
[2] = test system: peripheral blood mononuclear cells (PBMC) of the donor, CD8+ T cells removed; remark: listed apart in the source
[3] = clinical, literature; cited from earlier work
[4] = Production of antibodies against long-acting insulinotropic peptide in normal rats, 26-week administration (bridging ELISA); assay type: in vivo, Sprague Dawley rat; conditions: for % positive / Positive (animals with antibody) / Time point (of positive antibody finding): SD rat
Protocol: The blood was collected before and during administration, at the 13rd, 19th and 26th week, and at the end of the recovery period, the serum was separated from this. It was determined on whether to produce the antibodies against the insulinotropic peptide.
(§1) In order to detect whether the conjugate of Example 3 has produced an anti-drug antibody (ADA) in the body of rat or Cynomolgus monkey, the conjugate was examined by the bridging ELISA method. The biotinylated conjugate of Example 3 was bound to the 96-well microplate in which streptavidin was coupled to the bottom thereof, and washed with water. Digoxigenin(DIG)-labeled conjugate of Example 3 (hereinafter, HM11260C) was added along with the serum samples of rat or monkey to react and then washed with water. Then, the horseradish peroxidase-coupled anti-DIG antibody (anti-DIG-POD antibody) was added and developed by TMB substrate (3,3′,5,5′-tetramethylbenzidine substrate).
(§2) Measurement sensitivity in the rat serum was 3.1 ng/ml, and the measurement sensitivity in monkey serum was 12.5 ng/ml. To evaluate the neutralizing capacity against HM11260C of detected anti HM11260C antibody, serum samples and HM11260C were added to the human […] cell line (GLP-1R/CHO) and then the inhibition rate of cAMP-induction was measured.

[5] = test system: human GLP-1 overexpressed cell line (GLP-1R/CHO); assay: Neutralizing capacity of detected anti-HM11260C antibody: inhibition of cAMP induction; assay type: cell-based; conditions: for Neutralizing Ab: SD rat serum
Protocol: as §2

[6] = Production of antibodies in Cynomolgus monkey, 26-week administration (bridging ELISA); assay type: in vivo
Protocol: The blood was taken before and during administration, at the 12th, 19th and 26th week, and at the end of the recovery period, the serum was separated from this. It was determined whether to produce the antibodies against the insulinotropic peptide.
as §1, §2

[7] = Total of all groups incl. vehicle, n=200
[8] = Total of all groups incl. vehicle, n=40

Substance: imidazoacetyl-exendin-4 [CA Exendin-4]
- Frequency of Response (%) [1]: 12%
- Proliferation and ELISpot % [1]: 10%
- Frequency of Response (%) [2]: 12%

Substance: Lixisenatide
- patients who produced an antibody [3]: 60-71%

Substance: Keyhole Limpet Haemocyanin [KLH, reference compound]
- Proliferation and ELISpot % [1]: 80%

Substance: Imidazo-Acetyl Exendin-4 (Lys27)-Immunoglobulin Fc Conjugate [HM11260C]
- % positive ([4]; 26 weeks, high dose, n=60): 1.6%
- % positive ([4]; 26 weeks, low dose, n=40): 2.5%
- % positive ([4]; 26 weeks, mid dose, n=40): 0%
- Positive (animals with antibody) ([4]; s.c. once a week 26 weeks + 4 weeks recovery, high dose, n=60): 1
- Positive (animals with antibody) ([4]; s.c. once a week 26 weeks + 4 weeks recovery, low dose, n=40): 1
- Positive (animals with antibody) ([4]; s.c. once a week 26 weeks + 4 weeks recovery, mid dose, n=40): 0
- % positive [4, 7]: 1.0%
- Positive (animals with antibody) [4, 7]: 2
- Time point (of positive antibody finding) ([4]; high dose): recovery
- Time point (of positive antibody finding) ([4]; low dose): Week 13
- subjects in which antibodies were detected ([4]; among 160 rats administered with the drug): two
- Neutralizing Ab ([5]; Total of all groups): 0
- Neutralizing Ab ([5]; high dose): 0
- Neutralizing Ab ([5]; low dose): 0
- Neutralizing Ab ([5]; mid dose): 0
- neutralizing ability of the detected antibodies ([5]; sera of the two antibody-positive rats): not neutralizing antibodies; also recorded: no neutralizing ability
- % positive [6, 8]: 0%
- Positive/total [6, 8]: 0
- production of antibodies ([6]; all subjects): no production of the antibodies in all subjects was detected
- % positive ([6]; high dose, n=12): 0%
- % positive ([6]; low dose, n=8): 0%
- % positive ([6]; mid dose, n=8): 0%
- Positive/total ([6]; s.c. once a week 26 weeks + 4 weeks recovery, high dose, n=12): 0
- Positive/total ([6]; s.c. once a week 26 weeks + 4 weeks recovery, low dose, n=8): 0
- Positive/total ([6]; s.c. once a week 26 weeks + 4 weeks recovery, mid dose, n=8): 0
